Binding affinity (relative to RRQRR) (relative value to the RRQRR sequence) and Binding affinity (RU) data for 68 molecules are collected here from patent US20250011363A1, “OPTIMIZED SHORTENED PEPTIDE THAT BINDS TO ACETYLCHOLINE RECEPTOR, AND USE THEREOF” (SKINMED CO., LTD., priority 2021, published 2025).

Assay [1] has as its target acetylcholine receptor. Description: SPR, AchR immobilized on chip.
In assay [2] the target is acetylcholine receptor. Description: SPR, peptide at 10 uM, acetylcholine receptor immobilized on chip.

In the assay with acetylcholine receptor [1], ARRQRR showed a Binding affinity (relative to RRQRR) (relative value to the RRQRR sequence) of 129.
On to RRQRRI, for which the Binding affinity (relative to RRQRR) (relative value to the RRQRR sequence) with acetylcholine receptor [1] is 133.
In turn, KDTKR [5mer-646] returned a Binding affinity (RU) with acetylcholine receptor [2] of 16 RU.
In the case of RYEFK [5mer-944], the Binding affinity (RU) with acetylcholine receptor [2] turned out to be 25 RU.
As for RPSDR [5mer-942], in the assay with acetylcholine receptor [2], the Binding affinity (RU) was determined as 11 RU.
Turning to RRQRRA, in the assay with acetylcholine receptor [1], the Binding affinity (relative to RRQRR) (relative value to the RRQRR sequence) stood at 113.
Regarding RHKDK [5mer-645], in the assay with acetylcholine receptor [2], the Binding affinity (RU) stood at 20 RU.
For the molecule KDCFK [5mer-925], the Binding affinity (RU) in the assay with acetylcholine receptor [2] came to 25 RU.
The molecule RITFR [5mer-630] displayed a Binding affinity (RU) with acetylcholine receptor [2] of 30 RU.
On to KMMMR [5mer-934], for which, in the assay with acetylcholine receptor [2], the Binding affinity (RU) came out at 17 RU.
MRRQRR: the Binding affinity (relative to RRQRR) (relative value to the RRQRR sequence) with acetylcholine receptor [1] came to 119.
In the case of KDKGR [5mer-636], the Binding affinity (RU) with acetylcholine receptor [2] came to 11 RU.
In turn, RNCWK [5mer-926] returned a Binding affinity (RU) with acetylcholine receptor [2] of 22 RU.
Turning to SRRQRR, in the assay with acetylcholine receptor [1], the Binding affinity (relative to RRQRR) (relative value to the RRQRR sequence) came to 121.
In the case of RPANR [5mer-631], the Binding affinity (RU) in the assay with acetylcholine receptor [2] worked out at 17 RU.
Molecule RRQRRL gave a Binding affinity (relative to RRQRR) (relative value to the RRQRR sequence) in the assay with acetylcholine receptor [1] of 141.
Regarding KCDHK [5mer-637], in the assay with acetylcholine receptor [2], the Binding affinity (RU) came out at 28 RU.
Molecule RIEFK [5mer-938] gave a Binding affinity (RU) in the assay with acetylcholine receptor [2] of 18 RU.
RYMKK [5mer-933] had a Binding affinity (RU) with acetylcholine receptor [2] of 27 RU.
The molecule RAAKR [5mer-633] registered a Binding affinity (RU) with acetylcholine receptor [2] of 20 RU.
On to LRRQRR, for which the Binding affinity (relative to RRQRR) (relative value to the RRQRR sequence) in the assay with acetylcholine receptor [1] stood at 144.
In the assay with acetylcholine receptor [2], RDEDR [5mer-927] showed a Binding affinity (RU) of 19 RU.
In the assay with acetylcholine receptor [2], KMHAR [5mer-939] registered a Binding affinity (RU) of 24 RU.
In turn, RMKWK [5mer-644] had a Binding affinity (RU) with acetylcholine receptor [2] of 24 RU.
As for KNPHK [5mer-640], in the assay with acetylcholine receptor [2], the Binding affinity (RU) worked out at 15 RU.
Molecule KHTVK [5mer-647] returned a Binding affinity (RU) with acetylcholine receptor [2] of 29 RU.
In the case of RRQRRP, in the assay with acetylcholine receptor [1], the Binding affinity (relative to RRQRR) (relative value to the RRQRR sequence) came to 137.
WRRQRR returned a Binding affinity (relative to RRQRR) (relative value to the RRQRR sequence) in the assay with acetylcholine receptor [1] of 138.
With RYMDR [5mer-628], the Binding affinity (RU) with acetylcholine receptor [2] is 19 RU.
RYEKR [5mer-945] yielded a Binding affinity (RU) with acetylcholine receptor [2] of 23 RU.
The molecule RNHKR [5mer-936] registered a Binding affinity (RU) in the assay with acetylcholine receptor [2] of 29 RU.
Regarding KICMR [5mer-626], the Binding affinity (RU) in the assay with acetylcholine receptor [2] was determined as 12 RU.
VRRQRR returned a Binding affinity (relative to RRQRR) (relative value to the RRQRR sequence) with acetylcholine receptor [1] of 135.
For RRQRRM, the Binding affinity (relative to RRQRR) (relative value to the RRQRR sequence) with acetylcholine receptor [1] was 122.
In the assay with acetylcholine receptor [2], KYTFR [5mer-929] returned a Binding affinity (RU) of 28 RU.
In turn, RMMMR [5mer-634] showed a Binding affinity (RU) in the assay with acetylcholine receptor [2] of 26 RU.
For KDSFK [5mer-948], in the assay with acetylcholine receptor [2], the Binding affinity (RU) came to 18 RU.
For RETFK [5mer-935], the Binding affinity (RU) with acetylcholine receptor [2] was found to be 32 RU.
Turning to KNKKR [5mer-648], in the assay with acetylcholine receptor [2], the Binding affinity (RU) came to 15 RU.
In the assay with acetylcholine receptor [2], RPTNK [5mer-629] registered a Binding affinity (RU) of 32 RU.
In the assay with acetylcholine receptor [1], RRQRRG registered a Binding affinity (relative to RRQRR) (relative value to the RRQRR sequence) of 109.
For the molecule CRRQRR, the Binding affinity (relative to RRQRR) (relative value to the RRQRR sequence) with acetylcholine receptor [1] is 123.
In the case of PRRQRR, the Binding affinity (relative to RRQRR) (relative value to the RRQRR sequence) with acetylcholine receptor [1] was determined as 133.
On to RITWK [5mer-641], for which the Binding affinity (RU) with acetylcholine receptor [2] turned out to be 22 RU.
Still for that read-out and setting: for KHMVR [5mer-928] the value was 27 RU.
In the case of GRRQRR, the Binding affinity (relative to RRQRR) (relative value to the RRQRR sequence) with acetylcholine receptor [1] is 132.
For RRQRRW, the Binding affinity (relative to RRQRR) (relative value to the RRQRR sequence) with acetylcholine receptor [1] came out at 129.
KCMGK [5mer-940] displayed a Binding affinity (RU) with acetylcholine receptor [2] of 18 RU.
RRQRRF: the Binding affinity (relative to RRQRR) (relative value to the RRQRR sequence) with acetylcholine receptor [1] was 132.
Turning to KDKGK [5mer-943], in the assay with acetylcholine receptor [2], the Binding affinity (RU) amounted to 12 RU.
RRQRRC: in the assay with acetylcholine receptor [1], the Binding affinity (relative to RRQRR) (relative value to the RRQRR sequence) is 126.
For RRQRRV, the Binding affinity (relative to RRQRR) (relative value to the RRQRR sequence) with acetylcholine receptor [1] stood at 120.
For RFSHR [5mer-632], the Binding affinity (RU) in the assay with acetylcholine receptor [2] is 33 RU.
Regarding IRRQRR, the Binding affinity (relative to RRQRR) (relative value to the RRQRR sequence) with acetylcholine receptor [1] amounted to 121.
Take KMSPK [5mer-627]: in the assay with acetylcholine receptor [2], the Binding affinity (RU) was 30 RU.
The molecule KHCIR [5mer-638] registered a Binding affinity (RU) with acetylcholine receptor [2] of 33 RU.
For KHDGR [5mer-643], in the assay with acetylcholine receptor [2], the Binding affinity (RU) stood at 28 RU.
On the same count and under the same terms, for KYPWR [5mer-946] the value was 32 RU; for KETWK [5mer-639], 13 RU; for KNHHR [5mer-941], 21 RU.
On the same count and under the same terms, for RITER [5mer-931] the value was 11 RU.
On the same count and under the same terms, for RTAWK [5mer-932] the value was 27 RU.
The molecule RMNGR [5mer-635] returned a Binding affinity (RU) in the assay with acetylcholine receptor [2] of 21 RU.
On the same count and under the same terms, for RAWDR [5mer-642] the value was 22 RU.
In turn, FRRQRR showed a Binding affinity (relative to RRQRR) (relative value to the RRQRR sequence) with acetylcholine receptor [1] of 143.
For RAWVR [5mer-930], the Binding affinity (RU) with acetylcholine receptor [2] worked out at 20 RU.
Regarding KDWIR [5mer-947], the Binding affinity (RU) with acetylcholine receptor [2] amounted to 27 RU.
Regarding KASNR [5mer-937], the Binding affinity (RU) with acetylcholine receptor [2] amounted to 21 RU.
